The supplement of paper PMC10567573

B1: KCNAB2 (parent)
chain: YVDVVFANRPDPNTPMEETVRAMT

Variants of: B1
Assay: protein stability index of a GFP-peptide fusion (GPS, HEK-293T) (PSI 1-6); higher = more stable
Details: c terminus: a fixed tail appended
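Note: lentivirally expressed fusions sorted by FACS into six bins by GFP to DsRed ratio, PSI derived from sequencing read proportions per bin multiplied by bin number.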

Protein stability index, by site and new letter:
M23: P 2.14; V 1.78
T24: C 1.98; R 1.78; S 1.88; P 2.24; G 1.35; D 1.46; W 2.72; N 1.5; V 1.47; Y 2.46; K 1.82; L 1.8; E 1.86; M 2.18; Q 2.09; I 1.78; H 1.74; F 3.03
P15: R 2.52; A 2.34; F 2.47; C 2.67; T 1.94; M 2.28; K 2.72; W 1.78; D 1.49; Q 2.1; I 1.9; E 1.73; Y 2.21; S 2.69; V 1.87; N 1.97; L 2.44; H 1.35; G 1.91
T19: L 1.89; Y 1.62; C 1.46; W 1.85; S 1.93; D 2.07; E 1.71; M 1.79; F 1.66; G 1.9; R 1.66; Q 1.9; I 1.85; H 2.1; V 2.01; P 1.61; N 2; A 1.86; K 2.41
D11: E 1.6; W 1.94; C 1.77; V 2.53; S 1.39; H 2.28; F 2.46; I 2.2; P 1.67; M 2.04; Y 2.42; K 2.05; G 2.19; N 1.67; T 2.76; R 1.47; L 1.89; Q 2.5; A 2.79
A7: I 1.88; H 2.09; N 1.97; Q 2.15; Y 2.64; V 3.18; M 2.16; G 2.2; P 2.14; T 2.12; K 1.64; R 1.97; L 1.98; S 2.13; W 2.45
R9: Y 1.47; A 1.78; P 2.84; C 1.6; K 1.69; L 2.27; W 2.72; N 2.22; S 2.76; E 2.15; M 2.67; Q 1.98; I 2.07; D 2.71; V 2.96; F 2.02; T 1.7; G 2.17; H 1.66
N8: I 2.35; Y 2.88; A 2.69; Q 1.9; M 3.09; V 1.83; L 2.61; T 2.68; R 2.3; K 1.7; E 2.14; S 2.33; G 1.83; W 2.85; D 1.79; F 2.85; C 2.94; H 1.76; P 1.82
E17: H 2.85; D 2.12; M 2.65; P 2.17; N 2.76; A 1.86; Y 2.5; R 2.29; I 1.58; Q 2.14; V 2.06; G 2.72; L 1.64; T 2.84; S 1.2; K 2.62; C 1.62; W 3.15
V20: C 1.99; H 1.81; N 1.92; W 2.74; S 2.06; M 1.71; G 2.07; E 1.76; R 1.82; Y 1.8; D 1.76; P 1.86; A 1.82; T 1.81; Q 1.82; I 1.87; K 1.59; F 1.64; L 2.58
